We go through one substance from article PMC11841054 (Journal of Bacteriology, 2025).

The test has as its target GlnA3Mt (Rv1878), gamma-glutamylspermine synthetase of Mycobacterium tuberculosis (Mycobacterium tuberculosis H37Rv) (UniProt O07752). In words: SEC.

One may read the stoichiometry N as the number of molecules, sites or subunits per partner or assembly. In turn, “GlnA3Mt (Rv1878), gamma-glutamylspermine synthetase of Mycobacterium tuberculosis (from UniProt O07752 1-450) (enzyme)” returned a stoichiometry N of 12.
